From PMC8091058, “Distinct intramolecular interactions regulate autoinhibition of vinculin binding in αT-catenin and αE-catenin” (The Journal of Biological Chemistry, 2021)

T1: β-catenin–N-cadherin cytoplasmic tail complex (Mus musculus | , UniProt Q02248 1-781; P15116 746-906)
T1 construct: β-catenin, Mus musculus, full length; N-cadherin cytoplasmic tail (Ncad_(cyto)); the methods name no plasmid for the N-cadherin tail; also called β-catenin–Ncad_(cyto); β-cat–Ncad_(cyto); source: β-catenin: E. coli BL21-Gold, purified
T1 sequence (looked up) 1: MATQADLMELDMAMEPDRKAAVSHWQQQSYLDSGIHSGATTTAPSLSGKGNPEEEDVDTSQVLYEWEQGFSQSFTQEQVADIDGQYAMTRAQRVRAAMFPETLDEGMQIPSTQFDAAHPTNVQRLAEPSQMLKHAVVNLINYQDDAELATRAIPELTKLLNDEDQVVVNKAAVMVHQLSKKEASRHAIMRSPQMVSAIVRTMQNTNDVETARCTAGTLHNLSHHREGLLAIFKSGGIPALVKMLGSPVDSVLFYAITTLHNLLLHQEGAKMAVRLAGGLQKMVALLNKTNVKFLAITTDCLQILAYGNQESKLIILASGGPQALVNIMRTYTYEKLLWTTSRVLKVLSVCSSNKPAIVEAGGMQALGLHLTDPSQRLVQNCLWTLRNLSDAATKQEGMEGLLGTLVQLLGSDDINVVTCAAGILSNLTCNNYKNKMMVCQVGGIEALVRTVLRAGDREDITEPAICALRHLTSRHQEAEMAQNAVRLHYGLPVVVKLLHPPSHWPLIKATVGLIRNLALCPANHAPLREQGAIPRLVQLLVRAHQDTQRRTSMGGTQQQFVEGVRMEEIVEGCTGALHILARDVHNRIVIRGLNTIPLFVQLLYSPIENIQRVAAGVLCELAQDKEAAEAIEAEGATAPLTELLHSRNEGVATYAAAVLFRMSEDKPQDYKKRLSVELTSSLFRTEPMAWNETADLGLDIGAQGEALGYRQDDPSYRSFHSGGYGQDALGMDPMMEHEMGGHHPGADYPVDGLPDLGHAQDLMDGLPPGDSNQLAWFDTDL
T1 sequence (looked up) 2: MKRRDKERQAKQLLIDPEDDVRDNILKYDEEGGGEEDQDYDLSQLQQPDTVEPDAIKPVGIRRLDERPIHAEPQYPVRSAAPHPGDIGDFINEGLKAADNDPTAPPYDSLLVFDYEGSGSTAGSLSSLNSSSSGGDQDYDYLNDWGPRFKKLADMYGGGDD

T2: vinculin D1 (Mus musculus, UniProt Q64727)
T2 chain: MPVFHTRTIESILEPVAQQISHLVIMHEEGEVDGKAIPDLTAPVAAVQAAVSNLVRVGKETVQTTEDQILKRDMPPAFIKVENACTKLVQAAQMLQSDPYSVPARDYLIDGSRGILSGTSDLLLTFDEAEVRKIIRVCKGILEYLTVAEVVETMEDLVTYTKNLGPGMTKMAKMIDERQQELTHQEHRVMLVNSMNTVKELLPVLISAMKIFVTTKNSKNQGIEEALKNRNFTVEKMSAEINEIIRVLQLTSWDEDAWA

B1: αT-catenin head region (aa 1–659) (domain or fragment, Mus musculus, UniProt Q65CL1 1-659, looked up)
chain: MSAETPITLNMDTQDLQIQTFTVEKLLEPLIIQVTTLVNCPQNPSNRKKGRSKRARVLLASVEEATWNLLDKGEMIAKEATVLKEELAAALQEVRKESKALKVSAERFTDDPCYLPKREAVVQAARALLAAVTRLLVLADMIDVMCLLQHVSSFQRTFESLKNVSNKSDLQRTYQKLGKELESLDYLAFKRQQDLKSPSQRDEIAGARATLKENSPLLHSICSACLEHSDVASLKASKDTVCEEIQNALDVISNASQGIQNAPAPPEPQAATLGSAFDELENLIVLNPLTVTEEDVRPSLEKRLEAIISGAALLADSSCTRDLHRERIIAECNAIRQALQDLLTEYMSNTGKTERSNTLNTAIVNMSKKTRDLRRQLRKAIIDHISDSFLDTTVPLLVLIEAAKNGRVKEIKDYAAIFHEHTGRLVEVANLACSMSTNEDGIKIVRIAANHLETLCPQIINAALALASRPKSQVVKNTMEMYKRTWEHYIHVLTEAVDDITSIDDFLAVSESHILEDVNKCIIALRDQDADNLDRAAGAIRGRAARVAHIVAGEMDSYEPGAYTEGVMRNVNFLTSTVIPEFVTQVNVALDALSKNSLTALDDNQFVDISKKIYDTIHDIRCSVMMIRTPEELEDVSDLEDDHEVRSHTSIQTEGKTDR
notes: αT-catenin, Mus musculus, head region (N- and M-domains), aa 1-659; in pGEX-TEV; also called αT-catenin head (1–659); αT-catenin N1-M3 (aa 1–659); source: E. coli BL21-Gold, purified (glutathione-agarose, TEV cleavage, Mono Q or Mono S, S200)
B2: αT-catenin N1-N2 (aa 1–259) (domain or fragment, Mus musculus, UniProt Q65CL1 1-259, looked up)
chain: MSAETPITLNMDTQDLQIQTFTVEKLLEPLIIQVTTLVNCPQNPSNRKKGRSKRARVLLASVEEATWNLLDKGEMIAKEATVLKEELAAALQEVRKESKALKVSAERFTDDPCYLPKREAVVQAARALLAAVTRLLVLADMIDVMCLLQHVSSFQRTFESLKNVSNKSDLQRTYQKLGKELESLDYLAFKRQQDLKSPSQRDEIAGARATLKENSPLLHSICSACLEHSDVASLKASKDTVCEEIQNALDVISNASQGI
notes: αT-catenin, Mus musculus, N1-N2, aa 1-259; in pGEX-TEV; also called αT-catenin WT N1-N2; αT-catenin N1-N2 (1–259); source: E. coli BL21-Gold, purified (glutathione-agarose, TEV cleavage, Mono Q or Mono S, S200)
B3: 2I27–αT-catenin M1-M3–2I27 259-667 (protein)
chain: IQNAPAPPEPQAATLGSAFDELENLIVLNPLTVTEEDVRPSLEKRLEAIISGAALLADSSCTRDLHRERIIAECNAIRQALQDLLTEYMSNTGKTERSNTLNTAIVNMSKKTRDLRRQLRKAIIDHISDSFLDTTVPLLVLIEAAKNGRVKEIKDYAAIFHEHTGRLVEVANLACSMSTNEDGIKIVRIAANHLETLCPQIINAALALASRPKSQVVKNTMEMYKRTWEHYIHVLTEAVDDITSIDDFLAVSESHILEDVNKCIIALRDQDADNLDRAAGAIRGRAARVAHIVAGEMDSYEPGAYTEGVMRNVNFLTSTVIPEFVTQVNVALDALSKNSLTALDDNQFVDISKKIYDTIHDIRCSVMMIRTPEELEDVSDLEDDHEVRSHTSIQTEGKTDRAKMTQLPE
modifications: 2I27 fusion at both ends
B4: β-catenin (natural protein, Mus musculus, UniProt Q02248 1-781, looked up)
chain: T1 sequence (looked up) 1
notes: β-catenin, Mus musculus, full length; in pGEX-TEV; source: E. coli BL21-Gold, purified (glutathione-agarose, TEV cleavage, Mono Q or Mono S, S200)

Assays:
β-catenin = target: B4; experiment: ITC; β-catenin (110-150 μM) or β-catenin–Ncad_(cyto) complex (103-158 μM) injected into αT-catenin fragment in the cell; 25 °C; 20 mM Hepes pH 8.0, 150 mM NaCl, 1 mM TCEP; conditions: both partners purified
[1] = target: T1, β-catenin–N-cadherin cytoplasmic tail …; experiment: as above; conditions: both partners purified
vinculin D1 = target: T2, vinculin D1; experiment: ITC
[2] = target: B1; experiment: ITC; β-catenin (110-150 μM) or β-catenin–Ncad_(cyto) complex (103-158 μM) injected into αT-catenin fragment in the cell; 25 °C; 20 mM Hepes pH 8.0, 150 mM NaCl, 1 mM TCEP; conditions: both partners purified

Binder: B1
Kd (β-catenin): 264 ± 109 nM | Kd [1]: 5.6 ± 0.6 nM

Binder: B2
Kd [1]: 6.9 ± 12 nM

Binder: B3
Kd (vinculin D1): ~250 nM

Binder: B4
dH [2]: -14.6 ± 2.1 kcal/mol
